The results in this text go back to PMC10965808, “The alternative coproporphyrinogen III oxidase (CgoN) catalyzes the oxygen-independent conversion of coproporphyrinogen III into coproporphyrin III” (Frontiers in Microbiology, 2024).

Series [1] concerns the target T1, YtpQ (CgoN) (Priestia megaterium, UniProt D5DN20).
T1 construct: gene BMD_4814; full length, 270 residues; codon-adapted synthetic gene in pGEX-6P-1, N-terminal GST tag cut off with PreScission protease; E. coli BL21(DE3); calculated 30,781 Da; monomer (35 kDa by GPC)
T1 sequence (D5DN20 1-270): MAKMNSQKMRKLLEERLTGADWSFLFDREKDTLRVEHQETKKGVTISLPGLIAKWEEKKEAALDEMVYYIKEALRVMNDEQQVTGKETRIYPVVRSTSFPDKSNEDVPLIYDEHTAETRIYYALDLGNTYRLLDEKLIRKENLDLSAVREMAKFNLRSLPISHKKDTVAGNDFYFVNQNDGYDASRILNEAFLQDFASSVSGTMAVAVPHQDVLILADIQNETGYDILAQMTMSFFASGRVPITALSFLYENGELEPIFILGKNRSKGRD
Put plainly: fluorescence assay, stimulation of activity by added FAD. Type of series: biochemical. The conditions noted are these: 3 μM FAD; 1 μM enzyme; 10 μM coproporphyrinogen III; anaerobic; pH 7.2; 30°C; no menadione.

Substrate in series [2]: Cc1c2[nH]c(c1CCC(=O)O)Cc1[nH]c(c(CCC(=O)O)c1C)Cc1[nH]c(c(CCC(=O)O)c1C)Cc1[nH]c(c(C)c1CCC(=O)O)C2
Nature of the series: purified protein. It is filed as biochemical, Priestia megaterium. The conditions noted are these: anaerobic, 3 μM FAD, 5 μM menadione as electron acceptor, 1 μM enzyme, 1-20 μM substrate, HEPES pH 7.2, 0.02% Tween 80, 30°C.

As for `Cc1cc2nc3c(=O)[nH]c(=O)nc-3n(C[C@H](O)[C@H](O)[C@H](O)COP(=O)(O)OP(=O)(O)OC[C@H]3O[C@@H](n4cnc5c(N)ncnc54)[C@H](O)[C@@H]3O)c2cc1C` [FAD], in series [1], the “fluorescence assay, stimulation of activity by added FAD” value was “FAD was identified as the electron-transferring cofactor of YtpQ”.

B1: YtpQ (CgoN) (Priestia megaterium DSM 319) (protein)
chain: T1 sequence (D5DN20 1-270)
notes: full length, 270 residues; codon-adapted synthetic gene in pGEX-6P-1, N-terminal GST tag cut off with PreScission protease; E. coli BL21(DE3); calculated 30,781 Da; monomer (35 kDa by GPC)
For B1, in series [2], the Km came out at 3.95 µM and the kcat amounted to 0.0105 s⁻¹.

One may read the Km as the substrate concentration at which the rate is half of its maximum. By kcat is commonly meant the maximal rate divided by the concentration of active sites.
